Data: patent US20250296995A1

Biological target: recombinant Plasmodium falciparum circumsporozoite protein (CSP) (Plasmodium falciparum) (UniProt P19597)
Assay: cell-based or functional assay

Chain of recombinant Plasmodium falciparum circumsporozoite protein (CSP) (Plasmodium falciparum) (P19597 21-375 limits assumed): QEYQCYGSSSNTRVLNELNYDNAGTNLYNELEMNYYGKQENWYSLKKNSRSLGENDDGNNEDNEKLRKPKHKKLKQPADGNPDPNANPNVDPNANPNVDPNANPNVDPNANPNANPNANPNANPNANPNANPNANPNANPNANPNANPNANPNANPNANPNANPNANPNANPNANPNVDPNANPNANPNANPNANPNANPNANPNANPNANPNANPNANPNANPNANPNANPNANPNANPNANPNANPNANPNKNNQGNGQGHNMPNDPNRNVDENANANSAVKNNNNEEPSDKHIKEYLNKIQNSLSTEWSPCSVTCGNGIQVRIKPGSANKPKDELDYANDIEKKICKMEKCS

Binder	Geo Mean EC50 (ug/ml), ADNKA, Donor 1	Geo Mean EC50 (ug/ml), ADNKA, Donor 2	Geo Mean EC50 (ug/ml), ADNKA, Donor 3	Geo Mean EC50 (ug/ml), ADNKA, Donor 4	GeoMean EC50 (M), ADCP	GeoMean EC50 (M), ADCP repeat, n=4	Mean EC50 (pM), ADCP	Mean EC50 (pM), ADCP repeat, n=4	Mean pEC50, ADCP	Mean pEC50, ADCP repeat, n=4
AB-000338 ALE LS (antibody, human IgG1, kappa, V domains shown) VH: QVQLVESGGGVVQPGRSLRLSCAASGFSFSTYGMHWIRQVPGKGLEWVAIIWHDGSKEFYADSVKGRFTISRDNSKKKLYLQMNSLRAEDTAIYYCVKDDFDSSGHSYFHYWGQGTLVTVSS VL: GVVMTQSPLSLPVTLGQPASISCRSSQSLVHSDGNTYVHWFQQRPGQSPRRLIYKVSNRDSGVPDRFSGSGSGTDFTLKISRVEAEDVGVYYCMQGTQWWTFGQGTKVEIKR	0.0035 µg/mL	0.0037 µg/mL	0.0802 µg/mL	0.0214 µg/mL	1.18e-11 M	6.55e-12 M	11.8 pM	6.6 pM	10.9	11.2
AB-000338 LS (antibody, V domains shown) VH: QVQLVESGGGVVQPGRSLRLSCAASGFSFSTYGMHWIRQVPGKGLEWVAIIWHDGSKEFYADSVKGRFTISRDNSKKKLYLQMNSLRAEDTAIYYCVKDDFDSSGHSYFHYWGQGTLVTVSS VL: GVVMTQSPLSLPVTLGQPASISCRSSQSLVHSDGNTYVHWFQQRPGQSPRRLIYKVSNRDSGVPDRFSGSGSGTDFTLKISRVEAEDVGVYYCMQGTQWWTFGQGTKVEIK	0.0301 µg/mL	0.238 µg/mL	0.171 µg/mL	0.0887 µg/mL	9.19e-12 M	1.08e-11 M	9.2 pM	10.8 pM	11	11
AB-000338 DEA FV LS (antibody, V domains shown) VH: QVQLVESGGGVVQPGRSLRLSCAASGFSFSTYGMHWIRQVPGKGLEWVAIIWHDGSKEFYADSVKGRFTISRDNSKKKLYLQMNSLRAEDTAIYYCVKDDFDSSGHSYFHYWGQGTLVTVSS VL: GVVMTQSPLSLPVTLGQPASISCRSSQSLVHSDGNTYVHWFQQRPGQSPRRLIYKVSNRDSGVPDRFSGSGSGTDFTLKISRVEAEDVGVYYCMQGTQWWTFGQGTKVEIK	0.0087 µg/mL	0.0057 µg/mL	0.0272 µg/mL	0.0067 µg/mL	7.21e-12 M	–	7.2 pM	–	11.1	–
